# Reference: US20210205413A1 (Nektar Therapeutics, priority 2018, published 2021)
# Several values for one entry are separate records, joined by “and”; a condition that tells them apart may be missing. Identical values can stand only once.
# Legend:
# [1] = Single dose pharmacokinetics in rats (IV and SC, LS-2016-2033); type: in vivo, Sprague-Dawley Rats
# [2] = Solution phase stability by HPLC; type: physicochemical; conditions: 5° C.
# Description: The mobile phase is 0.2M ammonium acetate (pH 5.5) at a volume ratio of 80:20 with acetonitrile. The diluent/formulation buffer contained 10 mM sodium acetate, 200 mM sodium chloride, 2% sucrose, at a pH of 5.0. […] Samples are stable up to 5 days at 5° C. in solution.
# (refrigerated), and −20° C. at 1, 3, 5, and 7-day time points by RP-HPLC as previously described.
# Differences between the RUR20kD-IL-2 composition solutions are evaluated against a control, freshly prepared RUR20kD-IL-2 composition sample solution.
# [3] = Single dose pharmacokinetics in monkeys (IV and SC); type: in vivo, Cynomolgus Monkeys
# NK cells = test: Single-dose PK/PD study in mice: NK cells; type: in vivo, C57BL/6 mice; conditions: single SC 0.3 mg/kg (highest dose), relative to vehicle control
# From the text: Following administration, blood and spleen samples are collected at days 1-7 and day 10 post administration. More particularly, at each time point, blood and spleen samples are collected; samples are pooled and assessed for pharmacodynamic analysis of drug action on lymphocyte cell populations by flow cytometry (see e.g. Example 5), expressed as a fold change relative to vehicle control. In addition to changes in cell numbers, functional markers and markers of activity are quantified. Finally, plasma drug concentration is also assessed.
# human IL-2Rβ = biological target: T1, human IL-2Rβ (Homo sapiens, UniProt P14784); test: Affinity to the IL-2 receptor by surface plasmon resonance; type: binding; conditions: SPR
# T1 sequence (P14784 27-551): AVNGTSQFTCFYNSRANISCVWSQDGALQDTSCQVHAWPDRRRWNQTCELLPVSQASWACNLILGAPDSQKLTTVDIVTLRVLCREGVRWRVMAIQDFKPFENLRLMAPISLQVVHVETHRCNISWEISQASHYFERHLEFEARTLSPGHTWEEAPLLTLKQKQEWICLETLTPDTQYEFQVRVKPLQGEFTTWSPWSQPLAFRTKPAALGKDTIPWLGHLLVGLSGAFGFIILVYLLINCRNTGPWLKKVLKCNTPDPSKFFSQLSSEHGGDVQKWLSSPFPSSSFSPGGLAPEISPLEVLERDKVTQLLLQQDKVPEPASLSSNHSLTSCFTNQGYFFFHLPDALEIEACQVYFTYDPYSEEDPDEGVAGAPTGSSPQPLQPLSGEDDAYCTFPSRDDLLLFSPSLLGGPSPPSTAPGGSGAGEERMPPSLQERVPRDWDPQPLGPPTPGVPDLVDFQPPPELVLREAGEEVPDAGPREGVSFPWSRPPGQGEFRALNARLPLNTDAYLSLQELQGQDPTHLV
# Description: Impaired IL-2 production and regulatory T cell dysfunctions have been implicated as an immunological mechanism in multiple autoimmune diseases. While low-dose IL-2 can be used to stimulate Tregs for clinical benefit, poor pharmacokinetics necessitates daily delivery, adverse events are dose-limiting, and Treg increases are modest and short-lived. […] The affinity to the IL-2 receptor is assessed by surface plasmon resonance. Activity in human PBMC can be measured by pSTAT5 induction in multiple lymphocyte populations using flow cytometry and time-of-flight mass cytometry (CyToF). In vivo activity after subcutaneous administration in C57BL/6 mice or cynomolgus monkey is measured by changes in lymphocyte numbers and activation by flow cytometry. Ex vivo Treg function is determined by the inhibition of Tcon proliferation by isolated splenic Treg. Efficacy is assessed in a model of systemic lupus erythematosus (SLE) using MRL/MpJ-Faslpr mice. […] In mice, a single administration leads to sustained Treg mobilization for 7-10 days in blood and spleen without Tcon activation, an effect concomitant with induction of Treg activation markers and increased ex vivo suppressive capacity. […] Finally, an RUR20kD-IL-2 composition is efficacious in mouse models of SLE.
# [4] = Sprague-Dawley rats, single IV 0.01 mg/kg, plasma, mean ± SE
# [5] = Sprague-Dawley rats, single IV 0.1 mg/kg, plasma, mean ± SE
# [6] = Sprague-Dawley rats, single IV 1 mg/kg, plasma, mean ± SE
# [7] = Sprague-Dawley rats, single SC 0.01 mg/kg, plasma, mean ± SE
# [8] = Sprague-Dawley rats, single SC 0.1 mg/kg, plasma, mean ± SE
# [9] = Sprague-Dawley rats, single SC 1 mg/kg, plasma, mean ± SE
# [10] = cynomolgus monkeys, single IV 0.025 mg/kg, mean of male and female
# [11] = cynomolgus monkeys, single SC 0.025 mg/kg, mean of male and female
substance,measurement,setting,value
"(1,3-bis(methoxypoly(ethylene glycol)10kDcarbamoyl)-2-propanoxy)-4-butanamide)interleukin-2) [RUR20kD-IL-2]",AUCinf,[1]; [4],17800 ± 1000 ng·h/mL
same,AUClast,[1]; [4],17800 ± 900 ng·h/mL
same,CL,[1]; [4],13.4 ± 0.72 mL/day/kg
same,Half-life,[1]; [4],30 ± 3.84 h
same,MRTinf,[1]; [4],44.9 ± 5.04 h
same,Vss,[1]; [4],0.0251 L/kg
same,AUCinf,[1]; [5],120000 ± 8000 ng·h/mL
same,AUClast,[1]; [5],120000 ± 8000 ng·h/mL
same,CL,[1]; [5],20.2 ± 1.4 mL/day/kg
same,Half-life,[1]; [5],40.1 ± 0.24 h
same,MRTinf,[1]; [5],52.3 ± 0.96 h
same,Vss,[1]; [5],0.0441 ± 0.0035 L/kg
same,AUCinf,[1]; [6],877000 ± 39000 ng·h/mL
same,AUClast,[1]; [6],870000 ± 35000 ng·h/mL
same,CL,[1]; [6],27.4 ± 1.2 mL/day/kg
same,Half-life,[1]; [6],37.4 ± 5.28 h
same,MRTinf,[1]; [6],45.6 ± 3.84 h
same,Vss,[1]; [6],0.0526 L/kg
same,Absolute Bioavailability,"[1]; Sprague-Dawley rats, single SC 0.01 mg/kg",40.2%
same,AUCinf,[1]; [7],7160 ± 530 ng·h/mL
same,AUClast,[1]; [7],7120 ± 510 ng·h/mL
same,Cmax,[1]; [7],95 ± 6 ng/mL
same,Half-life,[1]; [7],32.4 ± 1.4 h
same,MRTinf,[1]; [7],64.8 ± 1.4 h
same,tmax,[1]; [7],31.9 ± 7.92 h
same,Absolute Bioavailability,"[1]; Sprague-Dawley rats, single SC 0.1 mg/kg",29.8%
same,AUCinf,[1]; [8],35700 ± 5100 ng·h/mL
same,AUClast,[1]; [8],35500 ± 5100 ng·h/mL
same,Cmax,[1]; [8],380 ± 40 ng/mL
same,Half-life,[1]; [8],46.1 ± 1.9 h
same,MRTinf,[1]; [8],82.1 ± 6.72 h
same,tmax,[1]; [8],48 ± 0 h
same,Absolute Bioavailability,"[1]; Sprague-Dawley rats, single SC 1 mg/kg",46.0%
same,AUCinf,[1]; [9],404000 ± 79000 ng·h/mL
same,AUClast,[1]; [9],398000 ± 74000 ng·h/mL
same,Cmax,[1]; [9],4860 ± 930 ng/mL
same,Half-life,[1]; [9],30.5 ± 7.68 h
same,MRTinf,[1]; [9],67.7 ± 3.84 h
same,tmax,[1]; [9],55.2 ± 7.92 h
same,Vss relative to species-specific plasma volume,[1]; rats,1-2 fold
same,Bioavailability,"[1]; rats, SC, range over doses",29.8-46.0%
same,tmax,"[1]; rats, SC, range over doses",24 to 55.2 h
same,half-lives,"[1]; rats, intravenous or subcutaneous dosing, range",1.25 to 2.44 days
same,Plasma clearance (CL),"[1]; rats, range over doses",13.4 to 27.4 mL/day/kg
same,time samples are stable in solution,[2]; 1.0 mg/mL in formulation buffer,up to 5 days
same,"relative difference of mono-PEG, tetra-PEG and penta-PEG species","[2]; 1.0 mg/mL solution pH 5, RT, −20° C. up to 7 days, RP-HPLC",up to 8%
same,AUCinf,[3]; [10],100000 ng·h/mL
same,AUClast,[3]; [10],71200 ng·h/mL
same,Half-life,[3]; [10],310 h
same,MRTinf,[3]; [10],403 h
same,Vss,[3]; [10],0.1 L/kg
same,CL,"[3]; cynomolgus monkeys, single IV 0.025 mg/kg, mean of male and female, 0.025 mg/kg",5.88 mL/day/kg and 6 mL/day/kg
same,AUCinf,[3]; [11],86000 ng·h/mL
same,AUClast,[3]; [11],65400 ng·h/mL
same,Cmax,[3]; [11],250 ng/mL
same,Half-life,[3]; [11],250 h
same,MRTinf,[3]; [11],360 h
same,Vss relative to species-specific plasma volume,[3]; monkeys,2-4 fold
same,half-lives,"[3]; monkeys, intravenous or subcutaneous dosing, range",10.4 to 12.9 days
same,increase in NK cells,NK cells,less than 2 fold
same,affinity for human IL-2Rβ relative to IL-2Ra and IL-2Rαβ complexes,human IL-2Rβ,greatly attenuated affinity
